# From US20210171596A1 (published 2021)
# T1: IL10R1-Fc (human, UniProt Q13651 22-235)
# T1 chain: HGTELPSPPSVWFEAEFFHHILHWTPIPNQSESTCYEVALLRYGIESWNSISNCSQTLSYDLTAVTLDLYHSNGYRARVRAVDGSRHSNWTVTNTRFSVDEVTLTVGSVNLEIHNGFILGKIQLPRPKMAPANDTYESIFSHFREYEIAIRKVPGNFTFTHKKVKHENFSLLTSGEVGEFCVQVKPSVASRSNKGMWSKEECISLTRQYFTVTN
# Molecular target: T1, IL10R1-Fc
# Assay: BLI
row,Binder,Kd [nM]
1,XENP25754 (D28N) (protein) chain 1: EPKSSDKTHTCPPCPAPPVAGPSVFLFPPKPKDTLMISRTPEVTCVVVDVKHEDPEVKFNWYVDGVEVHNAKTKPREEEYNSTYRVVSVLTVLHQDWLNGKEYKCKVSNKALPAPIEKTISKAKGQPREPQVYTLPPSREEMTKNQVSLTCDVSGFYPSDIAVEWESDGQPENNYKTTPPVLDSDGSFFLYSKLTVDKSRWEQGDVFSCSVMHEALHNHYTQKSLSLSPGK chain 2: SPGQGTQSENSCTHFPGNLPNMLRDLRNAFSRVKTFFQMKDQLDNLLLKESLLEDFKGYLGCQALSEMIQFYLEEVMPQAENQDPDIKAHVNSLGENLKTLRLRLRRCHRFLPCENGGGSGGKSKAVEQVKNAFNKLQEKGIYKAMSEFDIFINYIEAYMTMKIRNEPKSSDKTHTCPPCPAPPVAGPSVFLFPPKPKDTLMISRTPEVTCVVVDVKHEDPEVKFNWYVDGVEVHNAKTKPREEQYNSTYRVVSVLTVLHQDWLNGKEYKCKVSNKALPAPIEKTISKAKGQPREPQVYTLPPSREQMTKNQVKLTCLVKGFYPSDIAVEWESNGQPENNYKTTPPVLDSDGSFFLYSKLTVDKSRWQQGNVFSCSVMHEALHNHYTQKSLSLSPGK,3.86
2,XENP25759 (L43V) (protein) chain 1: EPKSSDKTHTCPPCPAPPVAGPSVFLFPPKPKDTLMISRTPEVTCVVVDVKHEDPEVKFNWYVDGVEVHNAKTKPREEEYNSTYRVVSVLTVLHQDWLNGKEYKCKVSNKALPAPIEKTISKAKGQPREPQVYTLPPSREEMTKNQVSLTCDVSGFYPSDIAVEWESDGQPENNYKTTPPVLDSDGSFFLYSKLTVDKSRWEQGDVFSCSVMHEALHNHYTQKSLSLSPGK chain 2: SPGQGTQSENSCTHFPGNLPNMLRDLRDAFSRVKTFFQMKDQVDNLLLKESLLEDFKGYLGCQALSEMIQFYLEEVMPQAENQDPDIKAHVNSLGENLKTLRLRLRRCHRFLPCENGGGSGGKSKAVEQVKNAFNKLQEKGIYKAMSEFDIFINYIEAYMTMKIRNEPKSSDKTHTCPPCPAPPVAGPSVFLFPPKPKDTLMISRTPEVTCVVVDVKHEDPEVKFNWYVDGVEVHNAKTKPREEQYNSTYRVVSVLTVLHQDWLNGKEYKCKVSNKALPAPIEKTISKAKGQPREPQVYTLPPSREQMTKNQVKLTCLVKGFYPSDIAVEWESNGQPENNYKTTPPVLDSDGSFFLYSKLTVDKSRWQQGNVFSCSVMHEALHNHYTQKSLSLSPGK,16.4
3,XENP25760 (D44N) (protein) chain 1: EPKSSDKTHTCPPCPAPPVAGPSVFLFPPKPKDTLMISRTPEVTCVVVDVKHEDPEVKFNWYVDGVEVHNAKTKPREEEYNSTYRVVSVLTVLHQDWLNGKEYKCKVSNKALPAPIEKTISKAKGQPREPQVYTLPPSREEMTKNQVSLTCDVSGFYPSDIAVEWESDGQPENNYKTTPPVLDSDGSFFLYSKLTVDKSRWEQGDVFSCSVMHEALHNHYTQKSLSLSPGK chain 2: SPGQGTQSENSCTHFPGNLPNMLRDLRDAFSRVKTFFQMKDQLNNLLLKESLLEDFKGYLGCQALSEMIQFYLEEVMPQAENQDPDIKAHVNSLGENLKTLRLRLRRCHRFLPCENGGGSGGKSKAVEQVKNAFNKLQEKGIYKAMSEFDIFINYIEAYMTMKIRNEPKSSDKTHTCPPCPAPPVAGPSVFLFPPKPKDTLMISRTPEVTCVVVDVKHEDPEVKFNWYVDGVEVHNAKTKPREEQYNSTYRVVSVLTVLHQDWLNGKEYKCKVSNKALPAPIEKTISKAKGQPREPQVYTLPPSREQMTKNQVKLTCLVKGFYPSDIAVEWESNGQPENNYKTTPPVLDSDGSFFLYSKLTVDKSRWQQGNVFSCSVMHEALHNHYTQKSLSLSPGK,1.23
4,XENP25756 (M39T) (protein) chain 1: EPKSSDKTHTCPPCPAPPVAGPSVFLFPPKPKDTLMISRTPEVTCVVVDVKHEDPEVKFNWYVDGVEVHNAKTKPREEEYNSTYRVVSVLTVLHQDWLNGKEYKCKVSNKALPAPIEKTISKAKGQPREPQVYTLPPSREEMTKNQVSLTCDVSGFYPSDIAVEWESDGQPENNYKTTPPVLDSDGSFFLYSKLTVDKSRWEQGDVFSCSVMHEALHNHYTQKSLSLSPGK chain 2: SPGQGTQSENSCTHFPGNLPNMLRDLRDAFSRVKTFFQTKDQLDNLLLKESLLEDFKGYLGCQALSEMIQFYLEEVMPQAENQDPDIKAHVNSLGENLKTLRLRLRRCHRFLPCENGGGSGGKSKAVEQVKNAFNKLQEKGIYKAMSEFDIFINYIEAYMTMKIRNEPKSSDKTHTCPPCPAPPVAGPSVFLFPPKPKDTLMISRTPEVTCVVVDVKHEDPEVKFNWYVDGVEVHNAKTKPREEQYNSTYRVVSVLTVLHQDWLNGKEYKCKVSNKALPAPIEKTISKAKGQPREPQVYTLPPSREQMTKNQVKLTCLVKGFYPSDIAVEWESNGQPENNYKTTPPVLDSDGSFFLYSKLTVDKSRWQQGNVFSCSVMHEALHNHYTQKSLSLSPGK,4.76
5,XENP25758 (Q42E) (protein) chain 1: EPKSSDKTHTCPPCPAPPVAGPSVFLFPPKPKDTLMISRTPEVTCVVVDVKHEDPEVKFNWYVDGVEVHNAKTKPREEEYNSTYRVVSVLTVLHQDWLNGKEYKCKVSNKALPAPIEKTISKAKGQPREPQVYTLPPSREEMTKNQVSLTCDVSGFYPSDIAVEWESDGQPENNYKTTPPVLDSDGSFFLYSKLTVDKSRWEQGDVFSCSVMHEALHNHYTQKSLSLSPGK chain 2: SPGQGTQSENSCTHFPGNLPNMLRDLRDAFSRVKTFFQMKDELDNLLLKESLLEDFKGYLGCQALSEMIQFYLEEVMPQAENQDPDIKAHVNSLGENLKTLRLRLRRCHRFLPCENGGGSGGKSKAVEQVKNAFNKLQEKGIYKAMSEFDIFINYIEAYMTMKIRNEPKSSDKTHTCPPCPAPPVAGPSVFLFPPKPKDTLMISRTPEVTCVVVDVKHEDPEVKFNWYVDGVEVHNAKTKPREEQYNSTYRVVSVLTVLHQDWLNGKEYKCKVSNKALPAPIEKTISKAKGQPREPQVYTLPPSREQMTKNQVKLTCLVKGFYPSDIAVEWESNGQPENNYKTTPPVLDSDGSFFLYSKLTVDKSRWQQGNVFSCSVMHEALHNHYTQKSLSLSPGK,7.3

# Other lines, results leading:
row,Kd [nM],Binder
1,5.05,XENP14246 (WT) (protein) chain 1: EPKSSDKTHTCPPCPAPPVAGPSVFLFPPKPKDTLMISRTPEVTCVVVDVKHEDPEVKFNWYVDGVEVHNAKTKPREEEYNSTYRVVSVLTVLHQDWLNGKEYKCKVSNKALPAPIEKTISKAKGQPREPQVYTLPPSREEMTKNQVSLTCDVSGFYPSDIAVEWESDGQPENNYKTTPPVLDSDGSFFLYSKLTVDKSRWEQGDVFSCSVMHEALHNHYTQKSLSLSPGK chain 2: SPGQGTQSENSCTHFPGNLPNMLRDLRDAFSRVKTFFQMKDQLDNLLLKESLLEDFKGYLGCQALSEMIQFYLEEVMPQAENQDPDIKAHVNSLGENLKTLRLRLRRCHRFLPCENGGGSGGKSKAVEQVKNAFNKLQEKGIYKAMSEFDIFINYIEAYMTMKIRNEPKSSDKTHTCPPCPAPPVAGPSVFLFPPKPKDTLMISRTPEVTCVVVDVKHEDPEVKFNWYVDGVEVHNAKTKPREEQYNSTYRVVSVLTVLHQDWLNGKEYKCKVSNKALPAPIEKTISKAKGQPREPQVYTLPPSREQMTKNQVKLTCLVKGFYPSDIAVEWESNGQPENNYKTTPPVLDSDGSFFLYSKLTVDKSRWQQGNVFSCSVMHEALHNHYTQKSLSLSPGK
2,8.14,XENP25753 (N21D) (protein) chain 1: EPKSSDKTHTCPPCPAPPVAGPSVFLFPPKPKDTLMISRTPEVTCVVVDVKHEDPEVKFNWYVDGVEVHNAKTKPREEEYNSTYRVVSVLTVLHQDWLNGKEYKCKVSNKALPAPIEKTISKAKGQPREPQVYTLPPSREEMTKNQVSLTCDVSGFYPSDIAVEWESDGQPENNYKTTPPVLDSDGSFFLYSKLTVDKSRWEQGDVFSCSVMHEALHNHYTQKSLSLSPGK chain 2: SPGQGTQSENSCTHFPGNLPDMLRDLRDAFSRVKTFFQMKDQLDNLLLKESLLEDFKGYLGCQALSEMIQFYLEEVMPQAENQDPDIKAHVNSLGENLKTLRLRLRRCHRFLPCENGGGSGGKSKAVEQVKNAFNKLQEKGIYKAMSEFDIFINYIEAYMTMKIRNEPKSSDKTHTCPPCPAPPVAGPSVFLFPPKPKDTLMISRTPEVTCVVVDVKHEDPEVKFNWYVDGVEVHNAKTKPREEQYNSTYRVVSVLTVLHQDWLNGKEYKCKVSNKALPAPIEKTISKAKGQPREPQVYTLPPSREQMTKNQVKLTCLVKGFYPSDIAVEWESNGQPENNYKTTPPVLDSDGSFFLYSKLTVDKSRWQQGNVFSCSVMHEALHNHYTQKSLSLSPGK
3,10.6,XENP25761 (N45D) (protein) chain 1: EPKSSDKTHTCPPCPAPPVAGPSVFLFPPKPKDTLMISRTPEVTCVVVDVKHEDPEVKFNWYVDGVEVHNAKTKPREEEYNSTYRVVSVLTVLHQDWLNGKEYKCKVSNKALPAPIEKTISKAKGQPREPQVYTLPPSREEMTKNQVSLTCDVSGFYPSDIAVEWESDGQPENNYKTTPPVLDSDGSFFLYSKLTVDKSRWEQGDVFSCSVMHEALHNHYTQKSLSLSPGK chain 2: SPGQGTQSENSCTHFPGNLPNMLRDLRDAFSRVKTFFQMKDQLDDLLLKESLLEDFKGYLGCQALSEMIQFYLEEVMPQAENQDPDIKAHVNSLGENLKTLRLRLRRCHRFLPCENGGGSGGKSKAVEQVKNAFNKLQEKGIYKAMSEFDIFINYIEAYMTMKIRNEPKSSDKTHTCPPCPAPPVAGPSVFLFPPKPKDTLMISRTPEVTCVVVDVKHEDPEVKFNWYVDGVEVHNAKTKPREEQYNSTYRVVSVLTVLHQDWLNGKEYKCKVSNKALPAPIEKTISKAKGQPREPQVYTLPPSREQMTKNQVKLTCLVKGFYPSDIAVEWESNGQPENNYKTTPPVLDSDGSFFLYSKLTVDKSRWQQGNVFSCSVMHEALHNHYTQKSLSLSPGK
4,14.4,XENP25763 (I87A) (protein) chain 1: EPKSSDKTHTCPPCPAPPVAGPSVFLFPPKPKDTLMISRTPEVTCVVVDVKHEDPEVKFNWYVDGVEVHNAKTKPREEEYNSTYRVVSVLTVLHQDWLNGKEYKCKVSNKALPAPIEKTISKAKGQPREPQVYTLPPSREEMTKNQVSLTCDVSGFYPSDIAVEWESDGQPENNYKTTPPVLDSDGSFFLYSKLTVDKSRWEQGDVFSCSVMHEALHNHYTQKSLSLSPGK chain 2: SPGQGTQSENSCTHFPGNLPNMLRDLRDAFSRVKTFFQMKDQLDNLLLKESLLEDFKGYLGCQALSEMIQFYLEEVMPQAENQDPDAKAHVNSLGENLKTLRLRLRRCHRFLPCENGGGSGGKSKAVEQVKNAFNKLQEKGIYKAMSEFDIFINYIEAYMTMKIRNEPKSSDKTHTCPPCPAPPVAGPSVFLFPPKPKDTLMISRTPEVTCVVVDVKHEDPEVKFNWYVDGVEVHNAKTKPREEQYNSTYRVVSVLTVLHQDWLNGKEYKCKVSNKALPAPIEKTISKAKGQPREPQVYTLPPSREQMTKNQVKLTCLVKGFYPSDIAVEWESNGQPENNYKTTPPVLDSDGSFFLYSKLTVDKSRWQQGNVFSCSVMHEALHNHYTQKSLSLSPGK
